How the values were obtained:
[1] = GFP-Polη foci, U2OS, 34 and 46 h after cisplatin removal; conditions: glycan lost; control: wild type
[2] = denaturing Flag IP, anti-HA-Ub and anti-K48-Ub blot; conditions: glycan lost; control: wild type
[3] = supF shuttle vector assay, complemented XP30RO; conditions: glycan lost; control: wild type
[4] = RPA foci, complemented XP30RO, 4 and 24 h post-UV; conditions: glycan lost; control: wild type
[5] = chromatin fractionation, chromatin-bound Polη 24 h post-UV; conditions: glycan lost; control: wild type
[6] = GFP-Polη foci, U2OS, 24 h after cisplatin; conditions: glycan lost; control: wild type
[7] = GFP-Polη foci, U2OS, 24 h post-UVC; conditions: glycan lost; control: wild type
[8] = DNA fiber assay after cisplatin; conditions: glycan lost; control: wild type
[9] = unreplicated CPDs in ssDNA, complemented XP30RO, 4 h post-UV; conditions: glycan lost; control: wild type
[10] = RPA2 foci-positive cells, 24 h recovery after cisplatin; conditions: glycan lost; control: wild type
[11] = DNA fiber assay, no cisplatin; conditions: glycan lost; control: wild type
[12] = quantitative MS of di-Gly peptides; conditions: glycan lost; control: wild type
[13] = chromatin-fraction IP, anti-ubiquitin/K48 blot; conditions: glycan lost; control: wild type
[14] = GFP-Polη foci, U2OS, 8 h post-UVC; conditions: glycan lost; control: wild type
[15] = in vitro ubiquitination of E. coli-purified His-Polη; conditions: control: WT His-Polη without OGT co-expression

B1: DNA polymerase η (Polη): T457A (protein)
parent chain: MATGQDRVVALVDMDCFFVQVEQRQNPHLRNKPCAVVQYKSWKGGGIIAVSYEARAFGVTRSMWADDAKKLCPDLLLAQVRESRGKANLTKYREASVEVMEIMSRFAVIERASIDEAYVDLTSAVQERLQKLQGQPISADLLPSTYIEGLPQGPTTAEETVQKEGMRKQGLFQWLDSLQIDNLTSPDLQLTVGAVIVEEMRAAIERETGFQCSAGISHNKVLAKLACGLNKPNRQTLVSHGSVPQLFSQMPIRKIRSLGGKLGASVIEILGIEYMGELTQFTESQLQSHFGEKNGSWLYAMCRGIEHDPVKPRQLPKTIGCSKNFPGKTALATREQVQWWLLQLAQELEERLTKDRNDNDRVATQLVVSIRVQGDKRLSSLRRCCALTRYDAHKMSHDAFTVIKNCNTSGIQTEWSPPLTMLFLCATKFSASAPSSSTDITSFLSSDPSSLPKVPVTSSEAKTQGSGPAVTATKKATTSLESFFQKAAERQKVKEASLSSLTAPTQAPMSNSPSKPSLPFQTSQSTGTEPFFKQKSLLLKQKQLNNSSVSSPQQNPWSNCKALPNSLPTEYPGCVPVCEGVSKLEESSKATPAEMDLAHNSQSMHASSASKSVLEVTQKATPNPSLLAAEDQVPCEKCGSLVPVWDMPEHMDYHFALELQKSFLQPHSSNPQVVSAVSHQGKRNPKSPLACTNKRPRPEGMQTLESFFKPLTH
localisation_or_trafficking [1]: increases | other: polyubiquitination [2]: decreases | other: UV-induced mutation frequency [3]: increases | other: CPD lesion bypass [4]: no change | localisation_or_trafficking [5]: increases | localisation_or_trafficking [6]: no change | localisation_or_trafficking [7]: increases | other: replication fork progression, other: median fiber length [8]: decreases, 8.62 vs 10.65 | other: CPD lesion bypass [9]: no change | other: translesion synthesis after cisplatin, other: % cells with >10 RPA2 foci [10]: increases, 33.4 vs 12.6 | other: replication fork progression, other: median fiber length [11]: no change, 12.07 vs 12.17 | other: site-specific ubiquitination [12]: decreases | other: polyubiquitination [13]: decreases | localisation_or_trafficking [14]: no change

B2: DNA polymerase η (Polη): T457D (protein)
parent chain: B1 parent chain
localisation_or_trafficking [7]: increases

B3: DNA polymerase η (Polη): T457A without OGT (protein)
parent chain: B1 parent chain
other: polyubiquitination ([15]; glycan lost): no change

B4: DNA polymerase η (Polη): Polη-3A (protein)
parent chain: B1 parent chain
localisation_or_trafficking [7]: increases | localisation_or_trafficking [14]: no change

B5: DNA polymerase η (Polη): 3A (protein)
parent chain: B1 parent chain
other: polyubiquitination [2]: decreases

B6: DNA polymerase η (Polη): T457A with GST-OGT co-expression (protein)
parent chain: B1 parent chain
other: polyubiquitination ([15]; glycan lost): no change

B7: DNA polymerase η (Polη): 5A (protein)
parent chain: B1 parent chain
other: polyubiquitination [2]: decreases

B8: DNA polymerase η (Polη): GST-OGT co-expression (WT) (protein)
parent chain: B1 parent chain
other: polyubiquitination ([15]; glycan gained): increases

B9: DNA polymerase η (Polη): Polη-5A (protein)
parent chain: B1 parent chain
localisation_or_trafficking [7]: increases | localisation_or_trafficking [14]: no change

B10: DNA polymerase η (Polη): T457E (protein)
parent chain: B1 parent chain
localisation_or_trafficking [7]: increases
